Literature values, collected in article PMC10083361.
pKd: −log10 of the molar value.

Target: TRAF2 (Homo sapiens) (UniProt Q12933)
Sequence (Q12933 2-501): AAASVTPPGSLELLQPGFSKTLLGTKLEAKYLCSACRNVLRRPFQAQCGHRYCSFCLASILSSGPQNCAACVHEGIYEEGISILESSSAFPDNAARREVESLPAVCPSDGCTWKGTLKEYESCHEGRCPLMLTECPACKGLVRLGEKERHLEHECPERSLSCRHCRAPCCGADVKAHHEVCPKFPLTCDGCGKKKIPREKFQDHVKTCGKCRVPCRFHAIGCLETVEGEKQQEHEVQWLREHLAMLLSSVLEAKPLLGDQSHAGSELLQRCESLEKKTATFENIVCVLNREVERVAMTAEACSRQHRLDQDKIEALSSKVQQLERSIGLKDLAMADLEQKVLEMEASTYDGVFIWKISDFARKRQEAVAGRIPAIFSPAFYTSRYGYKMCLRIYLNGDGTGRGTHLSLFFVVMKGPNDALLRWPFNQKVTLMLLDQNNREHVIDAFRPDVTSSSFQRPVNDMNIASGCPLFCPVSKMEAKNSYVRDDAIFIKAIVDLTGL

Sequence of 4-1BB (Q07011 24-255): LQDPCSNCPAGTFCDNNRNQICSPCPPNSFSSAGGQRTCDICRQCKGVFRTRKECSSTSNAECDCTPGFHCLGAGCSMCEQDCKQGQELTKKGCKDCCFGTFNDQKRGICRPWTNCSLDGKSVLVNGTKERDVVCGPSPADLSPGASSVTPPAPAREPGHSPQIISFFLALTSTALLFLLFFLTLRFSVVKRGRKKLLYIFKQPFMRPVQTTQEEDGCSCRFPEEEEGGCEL

pKd: 3.00
Substance: 4-1BB (from UniProt Q07011)
